Test results from patent US20120244226A1, “TREATMENT COMPOSITION AND METHOD” (DEC INTERNATIONAL NZ LIMITED, priority 2009, published 2012).

B1: pure lactoferrin (90%): composition 1 of WO 2008/009798: pure lactoferrin (90%) (protein, UniProt P24627 20-708, looked up)
Lactotransferrin: APRKNVRWCTISQPEWFKCRRWQWRMKKLGAPSITCVRRAFALECIRAIAEKKADAVTLDGGMVFEAGRDPYKLRPVAAEIYGTKESPQTHYYAVAVVKKGSNFQLDQLQGRKSCHTGLGRSAGWIIPMGILRPYLSWTESLEPLQGAVAKFFSASCVPCIDRQAYPNLCQLCKGEGENQCACSSREPYFGYSGAFKCLQDGAGDVAFVKETTVFENLPEKADRDQYELLCLNNSRAPVDAFKECHLAQVPSHAVVARSVDGKEDLIWKLLSKAQEKFGKNKSRSFQLFGSPPGQRDLLFKDSALGFLRIPSKVDSALYLGSRYLTTLKNLRETAEEVKARYTRVVWCAVGPEEQKKCQQWSQQSGQNVTCATASTTDDCIVLVLKGEADALNLDGGYIYTAGKCGLVPVLAENRKSSKHSSLDCVLRPTEGYLAVAVVKKANEGLTWNSLKDKKSCHTAVDRTAGWNIPMGLIVNQTGSCAFDEFFSQSCAPGADPKSRLCALCAGDDQGLDKCVPNSKEKYYGYTGAFRCLAEDVGDVAFVKNDTVWENTNGESTADWAKNLNREDFRLLCLDGTRKPVTEAQSCHLAVAPNHAVVSRSDRAAHVKQVLLHQQALFGKNGKNCPDKFCLFKSETKNLLFNDNTECLAKLGGRPTYEEYLGTEYVTAIANLKKCSTSPLLEACAFLTR
modifications: 90% pure preparation
B2: Lactoferrin: milk immune defence protein (P24627), tested on its own (protein, UniProt P24627 20-708, looked up)
Lactotransferrin: B1 Lactotransferrin

Key:
[1] = WO 2008/009798, cited from earlier work
[2] = tested on: interleukin-6 (IL-6) produced by LPS activated neutrophils; assay: IL-6 production by LPS activated neutrophils (ELISA); assay type: cell-based, rat; details: for IL-6 % Inhibition: relative to LPS only control
Protocol: (§1) The anti-inflammatory properties of the cationic fraction, IDP, and the combination of IDP with chondroitin and glucosamine were determined by measuring their ability to inhibit the production of the inflammatory compounds, tumor necrosis factor-α (TNF-α) and interleukin-6 (IL-6) produced by LPS activated neutrophils. […] Neutrophils were isolated from rat blood and incubated in the presence of LPS. LPS is derived from bacterial cell walls and is used to mimic a 'bacterial infection'. […] Two of these cytokine are TNF-α and IL-6. The concentrations of both cytokines produced by neutrophils exposed to LPS and the various test substances are summarised graphically in FIGS. 1 and 2 respectively. […] Aliquots from each set of triplicates were combined, and duplicates assayed for cytokine concentrations. The plate blank was subtracted from each individual data point. A VersaMax 96-well plate reader was used to colorimetrically assess the production of TNF-α and IL-6 as determined by the ELISA, using Rat TNF-α ELISA kit, R&D Systems, Cat # RTA00, and Rat IL-6 ELISA kit, R&D Systems, Cat # […]. The average cytokine concentration, standard deviation and standard error were calculated for each data set (sample and concentration). Preliminary statistical significance was assessed using independent Student t-tests at α≦0.05.

[3] = tested on: tumor necrosis factor-α (TNF-α) produced by LPS activated neutrophils; assay: TNF-α production by LPS activated neutrophils (ELISA); assay type: cell-based, rat; details: for TNF-α % Inhibition: relative to LPS only control
Protocol: as §1

Row | Molecule | anti-inflammatory activity of the composition on its own [1] | anti-inflammatory activity compared with glucosamine and chondroitin sulphate alone ([1]; combined with glucosamine and chondroitin sulphate) | IL-6 ([2]; 1 μg/ml) [pg/mL] | IL-6 % Inhibition ([2]; 1 μg/ml) [%] | IL-6 ([2]; 10 μg/ml) [pg/mL] | IL-6 % Inhibition ([2]; 10 μg/ml) [%] | IL-6 ([2]; 100 μg/ml) [pg/mL] | IL-6 % Inhibition ([2]; 100 μg/ml) [%] | stimulation of IL-6 levels ([2]; highest concentration tested) [%] | effect on IL-6, in words ([2]; lowest concentrations tested) | effect on IL-6, in words ([2]; over the concentrations tested) | TNF-α ([3]; 1 μg/ml) [pg/mL] | TNF-α % Inhibition ([3]; 1 μg/ml) [%] | TNF-α ([3]; 10 μg/ml) [pg/mL] | TNF-α % Inhibition ([3]; 10 μg/ml) [%] | TNF-α ([3]; 100 μg/ml) [pg/mL] | TNF-α % Inhibition ([3]; 100 μg/ml) [%] | stimulation of TNF-α levels ([3]; highest concentration tested) [%] | effect on TNF-α, in words ([3]; lowest concentrations tested) | effect on TNF-α, in words ([3]; over the concentrations tested)
1 | B1 | Neither of these compositions showed significant anti-inflammatory activity | significantly better | – | – | – | – | – | – | – | – | – | – | – | – | – | – | – | – | – | –
2 | B2 | – | – | 197.88 | 33.3 | 269.86 | 9.1 | 441.09 | −48.6 | 48 | no statistically significant effect | appeared not to act as anti-inflammatory | 226.19 | 17.9 | 242.58 | 11.9 | 325.95 | −18.4 | 18 | no statistically significant effect | appeared not to act as anti-inflammatory
